Starred links: 1 amine or outer side, 2 acyl side, 3 side chain; linkers in the order of their positions; H or OH if unused. Non-standard residues stand in square brackets, D forms with d. Groups on a side chain read outwards from the residue. No end group written: not given here. *: point of attachment. C20 diacid = O=C(O)CCCCCCCCCCCCCCCCCCC(=O)*; γGlu = O=C(O)[C@H](CCC(=O)[*:2])N[*:1]; εLys = N[C@@H](CCCCN[*:1])C(=O)[*:2]; Aib = CC(C)(N)C(=O)O
T1: human GIP receptor (human, UniProt P48546 22-466)
T1 sequence (looked up): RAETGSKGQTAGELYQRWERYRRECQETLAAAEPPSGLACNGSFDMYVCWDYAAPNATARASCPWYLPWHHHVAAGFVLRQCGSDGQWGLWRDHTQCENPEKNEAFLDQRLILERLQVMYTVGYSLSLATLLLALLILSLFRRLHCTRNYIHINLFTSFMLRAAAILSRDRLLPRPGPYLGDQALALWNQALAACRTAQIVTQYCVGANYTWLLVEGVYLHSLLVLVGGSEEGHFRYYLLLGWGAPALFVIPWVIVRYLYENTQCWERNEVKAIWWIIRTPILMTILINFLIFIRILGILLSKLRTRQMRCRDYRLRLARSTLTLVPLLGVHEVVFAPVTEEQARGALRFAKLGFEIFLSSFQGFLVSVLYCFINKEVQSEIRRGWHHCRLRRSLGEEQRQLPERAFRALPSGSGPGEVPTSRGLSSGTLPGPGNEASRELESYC

T2: human neuropeptide Y2 receptor (human, UniProt P49146 1-381)
T2 sequence (looked up): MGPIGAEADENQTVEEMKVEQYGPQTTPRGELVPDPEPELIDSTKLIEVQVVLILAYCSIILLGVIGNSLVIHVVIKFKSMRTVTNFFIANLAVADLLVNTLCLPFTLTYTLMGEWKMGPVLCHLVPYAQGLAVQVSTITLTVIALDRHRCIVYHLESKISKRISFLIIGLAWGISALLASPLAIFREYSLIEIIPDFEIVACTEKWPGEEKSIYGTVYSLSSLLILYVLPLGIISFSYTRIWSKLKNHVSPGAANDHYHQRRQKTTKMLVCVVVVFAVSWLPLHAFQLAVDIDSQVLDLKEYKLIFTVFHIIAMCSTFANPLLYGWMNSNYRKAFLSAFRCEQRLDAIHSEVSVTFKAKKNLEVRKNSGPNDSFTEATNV


Assays:
Test in all cases: cell-based or functional assay
human GLP-1 receptor = human GLP-1 receptor (human, UniProt P43220 24-463)
human GIP receptor = biological target: T1, human GIP receptor
[1] = biological target: T2, human neuropeptide Y2 receptor

EC50 CreLuc hGLP1R 0.5% hP (human GLP-1 receptor) [nM] | EC50 CreLuc hGLP1R 100% hP (human GLP-1 receptor) [nM] | EC50 CreLuc hGIPR 0.5% hP (human GIP receptor) [nM] | EC50 CreLuc hGIPR 100% hP (human GIP receptor) [nM] | EC50 CreLuc hNPY2R 0.5% hP [1] [nM] | EC50 CreLuc hNPY2R 100% hP [1] [nM] | Binder
1.12 | 7.18 | 0.53 | 1.58 | 20.4 | 45.4 | Y[Aib]EGTFTSDYSI[Aib]LEKQAQ[Aib]EFVEWLIK([εLys-γGlu-γGlu-γGlu-γGlu-γGlu-γGlu-γGlu-C20 diacid])GGPSSGASLRHYYNWLTRQRY-NH2 [Compound 88]
0.25 | 8.9 | 1.01 | 1.7 | 14.8 | 42.4 | YXEGTFTSDYSIXLEKQAQXAFVQWLIKGGPEEGASLRHYYNWLTRQRY (Aib at 2, 13, 20; K28 side chain: C20DA-gGlu-gGlu-gGlu-gGlu-gGlu-gGlu-eLys; C-terminal NH2) [Compound 89]
0.17 | 4.16 | 0.21 | 1.72 | 16.2 | 53.1 | YXEGTFTSDYSIXLEKQAQXAFVEWLIKGGPSSGATLRHYYNWLTRQRY (Aib at 2, 13, 20; K28 side chain: C20DA-gGlu-gGlu-gGlu-gGlu-gGlu-gGlu-eLys; C-terminal NH2) [Compound 91]
0.09 | 1.98 | 0.22 | 1.04 | 12.3 | 40.2 | YXEGTFTSDYSIXLEKQAQXAFVEWLIKGGPSSGISLRHYYNWLTRQRY (Aib at 2, 13, 20; K28 side chain: C20DA-gGlu-gGlu-gGlu-gGlu-gGlu-gGlu-eLys; C-terminal NH2) [Compound 94]
0.14 | 2.12 | 0.19 | 1.07 | 15.5 | 44.8 | YXEGTFTSDYSIXLEKQAQXAFVEWLIKGGPSSGVSLRHYYNWLTRQRY (Aib at 2, 13, 20; K28 side chain: C20DA-gGlu-gGlu-gGlu-gGlu-gGlu-gGlu-eLys; C-terminal NH2) [Compound 96]
0.3 | 5.39 | 1.03 | 6.75 | 18.4 | 71.9 | YXEGTFTSDYSIXLEDQAQXAFVEWLIKGGPSSGASLRHYYNWLTRQRY (Aib at 2, 13, 20; K28 side chain: C20DA-gGlu-gGlu-gGlu-gGlu-gGlu-gGlu-eLys; C-terminal NH2) [Compound 90]
0.22 | 8.97 | 0.14 | 2.35 | 15.3 | 85.7 | YXEGTFTSDYSIXLEKQAQXAFVEWLIKGGPSEYESLRHYYNWLTRQRY (Aib at 2, 13, 20; K28 side chain: C20DA-gGlu-gGlu-gGlu-gGlu-gGlu-gGlu-eLys; C-terminal NH2) [Compound 93]
0.13 | 2.76 | 0.13 | 0.75 | 20.6 | 56.9 | YXEGTFTSDYSIXLEKQAQXAFVEWLIKGGPSSPASLRHYYNWLTRQRY (Aib at 2, 13, 20; K28 side chain: C20DA-gGlu-gGlu-gGlu-gGlu-gGlu-gGlu-eLys; C-terminal NH2) [Compound 95]
0.15 | 3.08 | 0.14 | 0.95 | 14.9 | 70.4 | Y[Aib]EGTFTSDYSI[Aib]LEEQAQ[Aib]AFVEWLIK([εLys-γGlu-γGlu-γGlu-γGlu-C20 diacid])GGPSSGASLRHYYNWLTRQRY-NH2 [Compound 97]
0.08 | 3.16 | 0.33 | 1.64 | 7.48 | 27.9 | Y[Aib]EGTFTSDYSI[Aib]LEKQAQ[Aib]AFVQWLIK([εLys-γGlu-γGlu-γGlu-Glu-γGlu-γGlu-γGlu-C20 diacid])GGPSSGASLRHYYNWLTRQRY-NH2 [Compound 92]

Reference: patent US20240247080A1, “GLP1/GIP/NPY2 RECEPTOR TRIPLE AGONISTS” (Boehringer Ingelheim International GmbH, priority 2022, published 2024)
